Assay results taken from paper PMC4928148 (Biochemistry, 2016).

Target: the molecule itself
Assay: crystal structure

B1: secreted (extracellular) catalase-peroxidase from Magnaporthe grisea, wild type (enzyme)
chain: QGCPFAKRDGTVDSSLPQKRADAPETTTFGRCAVKSNQAGGGTRSHDWWPCQLRLDVLRQFQPSQNPLGGDFDYAEAFQSLDYEAVKKDIAALMTESQDWWPADFGNYGGLFVRMAWHSAGTYRAMDGRGGGGMGQQRFAPLNSWPDNQNLDKARRLIWPIKQKYGNKISWADLMLLTGNVALENMGFKTLGFGGGRADTWQSDEAVYWGAETTFVPQGNDVRYNNSVDINARADKLEKPLAATHMGLIYVNPEGPNGTPDPAASAKDIREAFGRMGMNDTETVALIAGGHAFGKTHGAVKGSNIGPAPEAADLGMQGLGWHNSVGDGNGPNQMTSGLEVIWTKTPTKWSNGYLESLINNNWTLVESPAGAHQWEAVNGTVDYPDPFDKTKFRKATMLTSDLALINDPEYLKISQRWLEHPEELADAFAKAWFKLLHRDLGPTTRYLGPEVPKESFIWQDPLPAREGDLIDDADVDKLKAAILSTDGLDVSKLASTAMACATTYRNSDKRGGCNGARIALEPQRNWVSNNPTQLSAVLDALKKVQSDFNGSNGNKKVSLADLIVLGGTAAVEKAAKDAGVDIKVPFSAGRVDATQEQTDVTQFSYLEPQADGFRNYGRGTARARTEEIMVDKASQLTLTPPELTVLVGGMRALGANYDGSDVGVFTANKGKLTPDFFVNLVDMNIAWTASGADGESWVGTDRKSRSEKYKGSRADLVFGSHAELRAIAEVYAENGNQEKFVKDFVAAWTKVMNLDRFDLKVKK
stoichiometry N: 2
